Laboratory results as given in publication doi:10.1101/2022.01.03.474807.

Key:
[1] = target: human melanocortin-4 receptor (human) (UniProt P32245)
[2] = target: human melanocortin-1 receptor (human) (UniProt Q01726)
[3] = target: human melanocortin-5 receptor (human) (UniProt P33032)
[4] = target: human melanocortin-3 receptor (human) (UniProt P41968)
Chain of UniProt P41968 (P41968 whole entry): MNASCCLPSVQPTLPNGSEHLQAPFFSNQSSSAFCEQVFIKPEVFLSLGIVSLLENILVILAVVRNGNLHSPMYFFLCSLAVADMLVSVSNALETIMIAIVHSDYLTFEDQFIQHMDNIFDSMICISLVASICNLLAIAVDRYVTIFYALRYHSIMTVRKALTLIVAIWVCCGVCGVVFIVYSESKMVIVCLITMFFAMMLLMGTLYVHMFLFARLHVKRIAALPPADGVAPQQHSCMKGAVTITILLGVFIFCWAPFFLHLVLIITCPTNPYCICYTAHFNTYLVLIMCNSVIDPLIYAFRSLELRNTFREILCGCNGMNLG

Chain of UniProt P33032 (P33032 whole entry): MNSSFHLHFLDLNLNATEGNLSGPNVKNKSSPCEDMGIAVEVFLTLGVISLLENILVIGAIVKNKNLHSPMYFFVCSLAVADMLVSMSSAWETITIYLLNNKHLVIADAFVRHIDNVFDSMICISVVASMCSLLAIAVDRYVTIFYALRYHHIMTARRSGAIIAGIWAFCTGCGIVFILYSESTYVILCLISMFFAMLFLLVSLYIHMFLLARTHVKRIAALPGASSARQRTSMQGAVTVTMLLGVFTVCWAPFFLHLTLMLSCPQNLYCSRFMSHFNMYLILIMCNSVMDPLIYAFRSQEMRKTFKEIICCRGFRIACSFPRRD
Chain of UniProt P32245 (P32245 whole entry): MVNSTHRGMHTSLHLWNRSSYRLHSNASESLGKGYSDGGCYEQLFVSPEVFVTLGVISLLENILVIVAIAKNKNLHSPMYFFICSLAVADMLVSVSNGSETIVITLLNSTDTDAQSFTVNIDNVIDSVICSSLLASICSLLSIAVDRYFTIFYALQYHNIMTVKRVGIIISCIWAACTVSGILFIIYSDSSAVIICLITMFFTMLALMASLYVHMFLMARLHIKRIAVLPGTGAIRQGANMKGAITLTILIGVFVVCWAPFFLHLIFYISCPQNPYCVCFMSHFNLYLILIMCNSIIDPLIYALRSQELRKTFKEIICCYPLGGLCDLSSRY
Chain of UniProt Q01726 (Q01726 whole entry): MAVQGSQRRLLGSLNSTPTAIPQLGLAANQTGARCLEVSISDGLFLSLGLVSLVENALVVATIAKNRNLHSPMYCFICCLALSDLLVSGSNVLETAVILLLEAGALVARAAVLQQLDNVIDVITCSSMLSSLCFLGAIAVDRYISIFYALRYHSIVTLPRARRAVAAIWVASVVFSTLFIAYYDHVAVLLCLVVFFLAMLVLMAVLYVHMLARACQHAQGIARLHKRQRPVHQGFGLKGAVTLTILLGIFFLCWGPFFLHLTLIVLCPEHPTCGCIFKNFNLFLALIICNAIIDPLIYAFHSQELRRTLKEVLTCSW

EC90 of the cAMP response (split-luciferase cAMP sensor) [1]: 0.07 µM
EC90 of the cAMP response (split-luciferase cAMP sensor) [2]: 0.01 µM
EC90 of the cAMP response (split-luciferase cAMP sensor) [3]: 0.5 µM
EC90 of the cAMP response (split-luciferase cAMP sensor) [4]: 0.03 µM
Substance: α-melanocyte-stimulating hormone (ligand)
